Kd and stoichiometry N data for two substances are collected here from paper PMC5596348.

Test [1] addresses streptolysin O (Streptococcus pyogenes (group A Streptococcus), strain 854) (UniProt P0C0I3). The test can be described thus: BLI; […] (Octet RED384), […]; 20 mM Tris, 300 mM NaCl, 0.01% Tween 20, 1 mM DTT, pH 7.4; 30°C; […].
Test [2] has the same target. The test can be described thus: […], room temperature; […], pH 7.4; […].
Test [3] has the same target. The test can be described thus: […]; PBS, 1 mM DTT, pH 7.4; room temperature.

As a reminder, the Kd is a measure of binding affinity in units of concentration. A higher Kd goes with a looser complex. By stoichiometry N is commonly meant a count of units in the complex or per binding partner.

“190NADase, C-terminal glycohydrolase (catalytic) domain of NADase (domain or fragment)”: the equilibrium dissociation constant (Kd) in test [1] turned out to be 20.7 µM.
On to “NAD+-glycohydrolase, full-length (enzyme)”, for which the stoichiometry N in test [2] and in test [3] was 1 each time. The substance also had a Kd in test [1] of 2.58 µM.
